Legend:
[1] = target: T1, Her2 on cells (SKOV3, JIMT-1, MCF7) (Homo sapiens (endogenous in SKOV3, …, UniProt P04626)); assay: cell-based or functional assay
[2] = target: T1, Her2 on cells (SKOV3, JIMT-1, MCF7); assay: cell-based or functional assay; remark: listed apart in the source
[3] = target: T1, Her2 on cells (SKOV3, JIMT-1, MCF7); assay: flow cytometry on cells; saturation binding of full-size antibodies on live low-Her2 MCF7 cells, 4°C 2 h, 0 to 200 nM or 1 μM, washed, anti-human Fc AlexaFluor488-(Fab')2 detection; apparent KD; conditions: one partner purified
[4] = target: T1, Her2 on cells (SKOV3, JIMT-1, MCF7); assay: flow cytometry on cells; saturation binding of full-size antibodies on live high-Her2 SKOV3 cells, 4°C 2 h, 0 to 200 nM or 1 μM, washed, anti-human Fc AlexaFluor488-(Fab')2 detection; apparent KD; conditions: one partner purified
[5] = target: T2, soluble Her2 ectodomain (Homo sapiens (assumed; species and …, UniProt P04626); assay: SPR; antibody captured on an anti-hFc CM-5 surface, soluble Her2 ectodomain flowed (monovalent binding); single cycle kinetics in duplicate, 25°C, PBS with 3.4 mM EDTA and 0.05% Tween 20; 1:1 binding model; Biacore T200; conditions: both partners purified
T2 construct: Her2 ectodomain, soluble

[6] = target: T2, soluble Her2 ectodomain; assay: as above; conditions: both partners purified; remark: listed apart in the source

B1: bH1 full-size antibody (Parent 2) (antibody, V domains shown)
VH: not shown
VL: DIQMTQSPSSLSASVGDRVTITCRASQDIPRSISGYVAWYQQKPGKAPKLLIYWGSYLYSGVPSRFSGSGSGTDFTLTISSLQPEDFATYYCQQHYTTPPTFGQGTKVEIK
notes: heavy chain of bH1 (Parent 2) as full-size human IgG; light chain of bH1 (Parent 2), a Herceptin variant with a 4-residue insertion in CDR-L1 and a few point mutations; FSA; IgG1 is surmised (Synagis is called the IgG1 isotype control); also called 2–13; source: CHO-3E7, co-transfected, purified (MabSelect Sure); copies: 2 + 2
[1]
  IC50 of cytotoxicity, indirect ADC screen (DM1-conjugated secondary antibody), JIMT1 cells: 7.4 nM
  IC50 of cytotoxicity, indirect ADC screen (DM1-conjugated secondary antibody), MCF7 cells: 8.2 nM
  IC50 of cytotoxicity, indirect ADC screen (DM1-conjugated secondary antibody), SKOV3 cells: 0.021 nM
  IC50 of cytotoxicity, indirect ADC screen (MMAE-conjugated secondary antibody), JIMT1 cells: 10.3 nM
  IC50 of cytotoxicity, indirect ADC screen (MMAE-conjugated secondary antibody), MCF7 cells: 35.6 nM
  IC50 of cytotoxicity, indirect ADC screen (MMAE-conjugated secondary antibody), SKOV3 cells: 0.078 nM
[2]
  IC50 of cytotoxicity, antibody directly conjugated to DM1, SKOV3 cells: 0.075 nM
  IC50 of cytotoxicity, antibody directly conjugated to PNU, JIMT1 cells: 0.5 nM
  IC50 of cytotoxicity, antibody directly conjugated to PNU, MCF7 cells: 2.02 nM
  IC50 of cytotoxicity, antibody directly conjugated to PNU, SKOV3 cells: 0.077 nM
[3]
  Kd: 0.87 nM
[4]
  Kd: 2.41 nM
[5]
  Kd: 14.7 nM
[6]
  koff: 0.000741 s⁻¹
  kon: 100000 M⁻¹ s⁻¹

From PMC6938348 (PLoS ONE, 2019)
